PMC11633381, “Acarbose impairs gut Bacteroides growth by targeting intracellular glucosidases” (mBio, 2024)

Target: the molecule itself
Test: SEC; 0.5 mL of 10.6 mg/mL BoSusA or 8.2 mg/mL SusA on HiPrep 16/60 Sephacryl S-200 HR, 20 mM HEPES, 100 mM NaCl, pH 7.0, 0.5 mL/min; compared with BioRad gel filtration standards

B1: SusA, periplasmic GH13 neopullulanase/alpha-amylase of the Bacteroides thetaiotaomicron Sus (enzyme, UniProt Q8A1G0 23-617, looked up)
chain: TSTIKKVAPTFWWAGMKNPELQILLYGDRISSADVSLSADNITLQEVVKQENPNYLVLYLDLSKAAPQNFDIILKQGKKQTKIPYELKQRRPNASAVEGFDSSDVLYLIMPDRFANGNPSNDIIPGMLEGNVDRNEPFARHGGDLKGIENHLDYIADLGVTSIWLNPIQENDMKEGSYHGYAITDYYQVDRRFGSNEEFRKLTQEANAKGLKVVMDMIFNHCGSDNYLFKDMPSKDWFNFEGNYVQTSFKTATQMDPYASDYEKKIAIDGWFTLTMPDFNQRNRHVATYLIQSSIWWIEYAGINGIRQDTHPYADFDMMARWCKAVNEEYPKFNIVGETWLGNNVLISYWQKDSRLAYPKNSNLPTVMDFPLMEEMNKAFDEETTEWNGGLFRLYEYLSQDIVYSHPMSLLTFLDNHDTSRFYRSEADTKNLDRYKQALTFLLTTRGIPQIYYGTEILMAADKANGDGLLRCDFPGGWPNDTKNCFDAANRTPQQNEAFSFMQKLLQWRKGNEVIAKGQLKHFAPNKGVYVYERKYGDKSVVVFLNGNDREQTIDLVPYQEILPASSAFDLLTEKKVELRNELTLPSREIYLLSF
notes: SusA, Bacteroides thetaiotaomicron VPI-5482, locus tag bt_3704 (NCBI AAO78809.1, 617 amino acids); cloned starting with T23, after the SPI signal peptide; also called bt_3704
  stoichiometry N: 2
